# Measurements as given in doi:10.1101/2024.04.30.591959.
# T1: human propionyl-CoA carboxylase β subunit (human (endogenous in Expi 293F)), P05166
# T1 chain: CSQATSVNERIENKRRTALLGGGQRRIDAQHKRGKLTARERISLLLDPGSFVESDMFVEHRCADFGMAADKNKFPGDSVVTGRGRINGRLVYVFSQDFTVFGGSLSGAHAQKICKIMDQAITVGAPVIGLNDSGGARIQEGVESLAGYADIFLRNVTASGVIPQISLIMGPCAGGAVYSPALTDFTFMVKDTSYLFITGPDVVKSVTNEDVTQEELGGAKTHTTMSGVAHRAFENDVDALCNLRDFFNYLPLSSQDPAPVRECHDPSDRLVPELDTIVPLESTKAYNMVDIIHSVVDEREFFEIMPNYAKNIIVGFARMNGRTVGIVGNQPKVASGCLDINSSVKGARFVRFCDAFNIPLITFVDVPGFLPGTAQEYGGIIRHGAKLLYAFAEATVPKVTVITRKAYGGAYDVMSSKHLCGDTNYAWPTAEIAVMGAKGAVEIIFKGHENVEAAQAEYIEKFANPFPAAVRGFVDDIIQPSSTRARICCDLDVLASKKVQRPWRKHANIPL
# B1: human propionyl-CoA carboxylase β subunit, P05166 29-539 (natural protein)
# chain: T1 chain
# Target: T1, human propionyl-CoA carboxylase β …
# Test: cryo-EM structure
# Details: remark: other sources report otherwise
binder,measurement,value
B1,stoichiometry N,6
